Assay [1] has as its target T1, Def1_(1-500), recombinant (Def1_(1-500)-His) (S. cerevisiae, UniProt P35732 1-500).
T1 sequence (looked up): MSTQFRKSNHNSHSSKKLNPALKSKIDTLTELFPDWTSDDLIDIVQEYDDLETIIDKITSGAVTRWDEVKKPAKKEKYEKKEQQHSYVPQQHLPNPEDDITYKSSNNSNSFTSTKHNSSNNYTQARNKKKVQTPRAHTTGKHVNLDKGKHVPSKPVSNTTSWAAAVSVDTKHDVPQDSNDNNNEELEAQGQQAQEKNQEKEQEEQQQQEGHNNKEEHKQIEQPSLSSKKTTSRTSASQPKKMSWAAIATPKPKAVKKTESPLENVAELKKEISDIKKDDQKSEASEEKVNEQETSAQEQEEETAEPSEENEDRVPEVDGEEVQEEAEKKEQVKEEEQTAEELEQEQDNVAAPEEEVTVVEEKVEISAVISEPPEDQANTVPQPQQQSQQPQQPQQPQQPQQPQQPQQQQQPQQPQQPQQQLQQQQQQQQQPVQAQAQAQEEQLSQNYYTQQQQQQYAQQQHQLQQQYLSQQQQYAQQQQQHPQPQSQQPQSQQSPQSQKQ
The assay is described as follows: pull-down.

Assay [2] deals with T1, Def1_(1-500), recombinant …. The assay is described as follows: pull-down. This is another data set of the same source.

Read-outs that look alike come from different tables or passages of the source.

B1: recombinant Ela1-Elc1 heterodimer (full-length His-Ela1 with Elc1) (complex, S. cerevisiae)
chain 1: MKSLQTLCEISLMRNHSNIQSVSNVPYHLLKRILQKVKIPQLLKLEKSNVLLIFDDDELWLEFLRQDFPTNVHEQFVSKRDIICKYYFDFVKENDIELYHSNQDLLKSCVRQSVVKDIRNNKYRIPYRMLYSKYQQEVEKKQEESAERLRLEMQKLQQEREKKQTIVVDHTVYFKKRNTKKTTRLHNEPHSQLYMKSLKDHESRLKHFKDGGFNIAKRHAQRVAFGGQAGGQSSSPKKGPLSIKPEPVKVNRQMDNVTAEKKDVTQPITPVKKRRSESPSIFLNRKKPALFRPTPKTNAAGSRPHTTAITNDHRTTSHPYPHKDVVTSISSVTANPVTKGHKKKKSGIFVRNAGSDGDSFPHVTATGPTTRPYIYEPRK
chain 2: MSQDFVTLVSKDDKEYEISRSAAMISPTLKAMIEGPFRESKGRIELKQFDSHILEKAVEYLNYNLKYSGVSEDDDEIPEFEIPTEMSLELLLAADYLSI
As for B1, the binding result in assay [1] was “binds”.

B2: GST-Ela1_(250–379) (domain or fragment, S. cerevisiae, UniProt P53861 250-379, looked up)
chain: VNRQMDNVTAEKKDVTQPITPVKKRRSESPSIFLNRKKPALFRPTPKTNAAGSRPHTTAITNDHRTTSHPYPHKDVVTSISSVTANPVTKGHKKKKSGIFVRNAGSDGDSFPHVTATGPTTRPYIYEPRK
For B2, in assay [2], the binding result was “binds”.

Values taken from publication PMC3778974 (Cell, 2013).
